Where no end group is shown, it is not given here. The star is where a group is joined. Biotin = O=C1N[C@H]2[C@H](CS[C@H]2CCCCC(=O)*)N1
Columns and labels:
[1] = biological target: T1, biotinylated de2-7 specific peptide Biotin-LEEKKGNYVVTDH (human); experiment: ELISA on biotinylated peptide on streptavidin plates
T1 construct: also called unique de2-7 EGFR peptide
T1 peptide: Biotin-LEEKKGNYVVTDH

[2] = biological target: T2, EGFR fragment 475-621 displayed on yeast (human, UniProt P00533 499-645); experiment: flow cytometry on yeast-displayed, c-myc-tagged EGFR fragment (native)
T2 construct: yeast surface display, C-terminal c-myc tag

[3] = biological target: T3, Peptide C: LEEKKGNYVVTDH(K-Biot)-OH (biotin on the added C-terminal Lys (K-Biot)); experiment: BIAcore, Peptide C on streptavidin chip
T3 construct: also called C-terminal biotinylated de2-7 peptide
T3 peptide: LEEKKGNYVVTDHK

[4] = biological target: T4, EGFR fragment 1-294 displayed on yeast (human, UniProt P00533 25-318); experiment: flow cytometry on yeast-displayed, c-myc-tagged EGFR fragment (native), indirect immunofluorescence
T4 construct: yeast surface display, C-terminal c-myc tag

[5] = biological target: T5, de2-7 EGFR unique junctional peptide (human); experiment: dot-blot immune stain
T5 construct: non-biotinylated; also called Junction Peptide
T5 peptide: LEEKKGNYVVTDH-OH

[6] = biological target: T6, anti-idiotype antibody LMH-12; experiment: sandwich ELISA: plate coated with 10 µg/ml LMH-12, detection with biotinylated LMH-12 (10 µg/ml), avidin-HRP and ABTS
T6 construct: mouse IgG1 kappa

[7] = biological target: T7, EGFR fragment 1-176 displayed on yeast (human, UniProt P00533 25-200); experiment: flow cytometry on yeast-displayed, c-myc-tagged EGFR fragment (native); fragment printed '1-716' on the sheet, 1-176 in the text
T7 construct: yeast surface display, C-terminal c-myc tag

B1: mAb806 (antibody, V domains shown)
VH: DVQLQESGPSLVKPSQSLSLTCTVTGYSITSDFAWNWIRQFPGNKLEWMGYISYSGNTRYNPSLKSRISITRDTSKNQFFLQLNSVTIEDTATYYCVTAGRGFPYWGQGTLVTVSA
VL: DILMTQSPSSMSVSLGDTVSITCHSSQDINSNIGWLQQRPGKSFKGLIYHGTNLDDEVPSRFSGSGSGADYSLTISSLESEDFADYYCVQYAQFPWTFGGGTKLEIKR
notes: murine IgG2b
B1: no binding [1]; no binding (tested: 10 µg/ml) [2]; no binding (tested: 100 nM) [3]. For the same binder, the binding result [4] was “no binding (tested: 10 µg/ml)”, the binding result [5] was “no binding” and the “EC50 (read off the curve)” value [6] was roughly 0.07 µg/mL. B1: no binding (tested: 10 µg/ml) [7].

— patent US20110313230A1 (LUDWIG INSTITUTE FOR CANCER RESEARCH, published 2011)
